Broadly, the IC50 is the midpoint of a concentration-inhibition curve.

The record followed here is US20160272683A1 (Novo Nordisk, published 2016).

T1: human calcitonin receptor (human, UniProt P30988 25-474)
T1 construct: whole, on cells; also called hCT-R; hCTR
T1 sequence (looked up): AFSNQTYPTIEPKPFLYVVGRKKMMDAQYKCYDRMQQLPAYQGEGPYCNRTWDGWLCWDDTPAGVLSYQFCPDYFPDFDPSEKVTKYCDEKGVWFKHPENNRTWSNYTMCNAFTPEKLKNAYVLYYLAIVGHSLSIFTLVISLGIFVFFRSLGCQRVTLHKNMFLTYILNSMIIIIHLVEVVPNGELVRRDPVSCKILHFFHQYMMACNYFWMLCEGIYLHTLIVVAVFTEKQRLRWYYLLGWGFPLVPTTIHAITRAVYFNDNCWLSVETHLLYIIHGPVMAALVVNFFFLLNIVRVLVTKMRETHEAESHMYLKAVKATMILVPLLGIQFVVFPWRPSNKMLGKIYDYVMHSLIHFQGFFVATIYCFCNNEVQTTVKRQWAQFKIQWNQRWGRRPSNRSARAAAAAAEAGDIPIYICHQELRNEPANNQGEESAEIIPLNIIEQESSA

B1: [N-terminal(C20 diacid-gGlu), des1, 12H, 25H, 30T, 31G, 32T]mimylin (peptide)
peptide: {C20 diacid-γGlu}-ASELSTAALGHLSAELHELATLPHTETGTGTP-NH2
SMILES: CC(C)C[C@H](NC(=O)[C@H](C)NC(=O)[C@H](C)NC(=O)[C@@H](NC(=O)[C@H](CO)NC(=O)[C@H](CC(C)C)NC(=O)[C@H](CCC(=O)O)NC(=O)[C@H](CO)NC(=O)[C@H](C)NC(=O)CC[C@H](NC(=O)CCCCCCCCCCCCCCCCCCC(=O)O)C(=O)O)[C@@H](C)O)C(=O)NCC(=O)N[C@@H](Cc1c[nH]cn1)C(=O)N[C@@H](CC(C)C)C(=O)N[C@@H](CO)C(=O)N[C@@H](C)C(=O)N[C@@H](CCC(=O)O)C(=O)N[C@@H](CC(C)C)C(=O)N[C@@H](Cc1c[nH]cn1)C(=O)N[C@@H](CCC(=O)O)C(=O)N[C@@H](CC(C)C)C(=O)N[C@@H](C)C(=O)N[C@H](C(=O)N[C@@H](CC(C)C)C(=O)N1CCC[C@H]1C(=O)N[C@@H](Cc1c[nH]cn1)C(=O)N[C@H](C(=O)N[C@@H](CCC(=O)O)C(=O)N[C@H](C(=O)NCC(=O)N[C@H](C(=O)NCC(=O)N[C@H](C(=O)N1CCC[C@H]1C(N)=O)[C@@H](C)O)[C@@H](C)O)[C@@H](C)O)[C@@H](C)O)[C@@H](C)O
notes: also called Ex. #93
B2: [N-terminal(C20 diacid-gGlu), des1, 12H, 30S, 31G]mimylin (peptide)
peptide: {C20 diacid-γGlu}-ASELSTAALGHLSAELHELATLPRTETGSGSP-NH2
notes: also called Ex. #72
B3: [N-terminal(C20 diacid-gGlu), des1, 23Y, 30S, 31G]mimylin (peptide)
peptide: {C20 diacid-γGlu}-ASELSTAALGRLSAELHELATYPRTETGSGSP-NH2
SMILES: CC(C)C[C@H](NC(=O)[C@H](C)NC(=O)[C@H](C)NC(=O)[C@@H](NC(=O)[C@H](CO)NC(=O)[C@H](CC(C)C)NC(=O)[C@H](CCC(=O)O)NC(=O)[C@H](CO)NC(=O)[C@H](C)NC(=O)CC[C@H](NC(=O)CCCCCCCCCCCCCCCCCCC(=O)O)C(=O)O)[C@@H](C)O)C(=O)NCC(=O)N[C@@H](CCCNC(=N)N)C(=O)N[C@@H](CC(C)C)C(=O)N[C@@H](CO)C(=O)N[C@@H](C)C(=O)N[C@@H](CCC(=O)O)C(=O)N[C@@H](CC(C)C)C(=O)N[C@@H](Cc1c[nH]cn1)C(=O)N[C@@H](CCC(=O)O)C(=O)N[C@@H](CC(C)C)C(=O)N[C@@H](C)C(=O)N[C@H](C(=O)N[C@@H](Cc1ccc(O)cc1)C(=O)N1CCC[C@H]1C(=O)N[C@@H](CCCNC(=N)N)C(=O)N[C@H](C(=O)N[C@@H](CCC(=O)O)C(=O)N[C@H](C(=O)NCC(=O)N[C@@H](CO)C(=O)NCC(=O)N[C@@H](CO)C(=O)N1CCC[C@H]1C(N)=O)[C@@H](C)O)[C@@H](C)O)[C@@H](C)O
notes: also called Ex. #56
B4: [N-terminal(C20 diacid-gGlu), des1, 23Y, 30S, 31G, 33Y, C-terminal(-)]mimylin (peptide)
peptide: {C20 diacid-γGlu}-ASELSTAALGRLSAELHELATYPRTETGSGSY-OH
notes: also called Ex. #88
B5: [N-terminal(C20 diacid-gGlu), des1, 23Y, 30S, 31G, 32A]mimylin (peptide)
peptide: {C20 diacid-γGlu}-ASELSTAALGRLSAELHELATYPRTETGSGAP-NH2
SMILES: CC(C)C[C@H](NC(=O)[C@H](C)NC(=O)[C@H](C)NC(=O)[C@@H](NC(=O)[C@H](CO)NC(=O)[C@H](CC(C)C)NC(=O)[C@H](CCC(=O)O)NC(=O)[C@H](CO)NC(=O)[C@H](C)NC(=O)CC[C@H](NC(=O)CCCCCCCCCCCCCCCCCCC(=O)O)C(=O)O)[C@@H](C)O)C(=O)NCC(=O)N[C@@H](CCCNC(=N)N)C(=O)N[C@@H](CC(C)C)C(=O)N[C@@H](CO)C(=O)N[C@@H](C)C(=O)N[C@@H](CCC(=O)O)C(=O)N[C@@H](CC(C)C)C(=O)N[C@@H](Cc1c[nH]cn1)C(=O)N[C@@H](CCC(=O)O)C(=O)N[C@@H](CC(C)C)C(=O)N[C@@H](C)C(=O)N[C@H](C(=O)N[C@@H](Cc1ccc(O)cc1)C(=O)N1CCC[C@H]1C(=O)N[C@@H](CCCNC(=N)N)C(=O)N[C@H](C(=O)N[C@@H](CCC(=O)O)C(=O)N[C@H](C(=O)NCC(=O)N[C@@H](CO)C(=O)NCC(=O)N[C@@H](C)C(=O)N1CCC[C@H]1C(N)=O)[C@@H](C)O)[C@@H](C)O)[C@@H](C)O
notes: also called Ex. #81
B6: [N-terminal(C20 diacid-gGlu), des1, 12K, 23Y, 25K, 30S, 31G, 33Y]mimylin (peptide)
peptide: {C20 diacid-γGlu}-ASELSTAALGKLSAELHELATYPKTETGSGSY-NH2
SMILES: CC(C)C[C@H](NC(=O)[C@H](C)NC(=O)[C@H](C)NC(=O)[C@@H](NC(=O)[C@H](CO)NC(=O)[C@H](CC(C)C)NC(=O)[C@H](CCC(=O)O)NC(=O)[C@H](CO)NC(=O)[C@H](C)NC(=O)CC[C@H](NC(=O)CCCCCCCCCCCCCCCCCCC(=O)O)C(=O)O)[C@@H](C)O)C(=O)NCC(=O)N[C@@H](CCCCN)C(=O)N[C@@H](CC(C)C)C(=O)N[C@@H](CO)C(=O)N[C@@H](C)C(=O)N[C@@H](CCC(=O)O)C(=O)N[C@@H](CC(C)C)C(=O)N[C@@H](Cc1c[nH]cn1)C(=O)N[C@@H](CCC(=O)O)C(=O)N[C@@H](CC(C)C)C(=O)N[C@@H](C)C(=O)N[C@H](C(=O)N[C@@H](Cc1ccc(O)cc1)C(=O)N1CCC[C@H]1C(=O)N[C@@H](CCCCN)C(=O)N[C@H](C(=O)N[C@@H](CCC(=O)O)C(=O)N[C@H](C(=O)NCC(=O)N[C@@H](CO)C(=O)NCC(=O)N[C@@H](CO)C(=O)N[C@@H](Cc1ccc(O)cc1)C(N)=O)[C@@H](C)O)[C@@H](C)O)[C@@H](C)O
notes: also called Ex. #101
B7: [N-terminal(C20 diacid-gGlu), des1, 21S, 23Y, 30S, 31G, 33Y]mimylin (peptide)
peptide: {C20 diacid-γGlu}-ASELSTAALGRLSAELHELSTYPRTETGSGSY-NH2
SMILES: CC(C)C[C@H](NC(=O)[C@H](C)NC(=O)[C@H](C)NC(=O)[C@@H](NC(=O)[C@H](CO)NC(=O)[C@H](CC(C)C)NC(=O)[C@H](CCC(=O)O)NC(=O)[C@H](CO)NC(=O)[C@H](C)NC(=O)CC[C@H](NC(=O)CCCCCCCCCCCCCCCCCCC(=O)O)C(=O)O)[C@@H](C)O)C(=O)NCC(=O)N[C@@H](CCCNC(=N)N)C(=O)N[C@@H](CC(C)C)C(=O)N[C@@H](CO)C(=O)N[C@@H](C)C(=O)N[C@@H](CCC(=O)O)C(=O)N[C@@H](CC(C)C)C(=O)N[C@@H](Cc1c[nH]cn1)C(=O)N[C@@H](CCC(=O)O)C(=O)N[C@@H](CC(C)C)C(=O)N[C@@H](CO)C(=O)N[C@H](C(=O)N[C@@H](Cc1ccc(O)cc1)C(=O)N1CCC[C@H]1C(=O)N[C@@H](CCCNC(=N)N)C(=O)N[C@H](C(=O)N[C@@H](CCC(=O)O)C(=O)N[C@H](C(=O)NCC(=O)N[C@@H](CO)C(=O)NCC(=O)N[C@@H](CO)C(=O)N[C@@H](Cc1ccc(O)cc1)C(N)=O)[C@@H](C)O)[C@@H](C)O)[C@@H](C)O
notes: also called Ex. #97

Numbered stars: 1 amine (or outer) side, 2 acyl side, 3 side chain; on linkers, the order of the positions; unused ones are H or OH. * marks the point of attachment. C20 diacid = O=C(O)CCCCCCCCCCCCCCCCCCC(=O)*; γGlu = O=C(O)[C@H](CCC(=O)[*:2])N[*:1]

The assay has as its target T1, human calcitonin receptor. Nature of the assay: whole-cell competition vs 125I-human calcitonin (Assay VIIa). An outline of the steps: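 BHK tk'ts 13 cells stably co-expressing human calcitonin receptor and a CRE-luciferase reporter, seeded overnight at 37 °C. Bound tracer counted by scintillation after cold HBSS washes and NaOH/SDS lysis; IC₅₀ from one-site competition fit taken as receptor affinity.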
B1: the IC50 was determined as 1.03 nM. B2: the IC50 was found to be 0.438 nM. For the molecule B3, the IC50 turned out to be 2.94 nM. Take B4: the half-maximal inhibitory concentration (IC50) came out at 24.2 nM. Turning to B5, the IC50 was determined as 4.93 nM. As for B6, the IC50 worked out at 0.628 nM. Consider B7, for which the IC50 worked out at 0.307 nM.
